The target of this assay is T1, Human ST2 (human, UniProt Q01638 19-328, limits assumed).
T1 construct: also called human ST2 protein; Interleukin 1 receptor-like 1
T1 sequence (looked up): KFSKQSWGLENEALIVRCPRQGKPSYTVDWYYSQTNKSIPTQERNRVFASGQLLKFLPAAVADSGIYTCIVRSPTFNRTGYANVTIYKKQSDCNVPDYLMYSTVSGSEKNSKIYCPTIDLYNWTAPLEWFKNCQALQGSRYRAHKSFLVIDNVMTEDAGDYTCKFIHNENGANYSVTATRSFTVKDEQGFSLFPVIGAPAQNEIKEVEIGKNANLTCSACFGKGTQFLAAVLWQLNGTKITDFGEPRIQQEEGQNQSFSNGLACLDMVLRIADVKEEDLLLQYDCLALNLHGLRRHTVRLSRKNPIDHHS
In words: SPR (Carterra), antibody immobilized, ST2 analyte. The method, then: Binding of the reformatted human ST2 antibodies to the human and mouse ST2 proteins was evaluated by surface plasmon resonance (SPR), using a high throughput antibody screening and characterization platform from Carterra (Salt Lake City, Utah).

Substitutions are numbered along the chain they refer to.

B1: Human ST2 IgG1 Antibody 61 (antibody, V domains shown)
VH: QVQLVQSGAEVKKPGSSVKVSCKASGGTFSNYAISWVRQAPGQGLEWMGGIIPVFGTATYAQKFQGRVTITADESTSTAYMELSSLRSEDTAVYYCARVTAMGVGWYFDLWGRGTLVTVSS
VL: DIVMTQSPLSLPVTPGEPASISCRSSQSLLHSNGYNYLDWYLQKPGQSPQLLIYAASSLQSGVPDRFSGSGSGTDFTLKISRVEAEDVGVYYCMQSLQTPPTFGQGTKLEIKR
notes: IgG1; also called ST2 Antibody 61
In general, Kd refers to the equilibrium constant for the complex coming apart. One may read the koff as the rate constant with which the complex falls apart. A lower koff goes with slow dissociation. By kon is commonly meant the second-order rate constant of association. For the molecule B1, binding was characterised by a dissociation constant (Kd) of 563 nM, the dissociation rate constant (koff) stood at 0.14 s⁻¹ and the on-rate (kon) was found to be 260000 M⁻¹ s⁻¹.

B2: Human ST2 IgG1 Antibody 69 (antibody, V domains shown)
VH: QVQLVQSGAEVKKPGASVKVSCKASGYTFSDYYVHWVRQAPGQGLEWMGWISAYNGNTNYAQKLQGRVTMTRDTSTSTVYMELSSLRSEDTAVYYCARGSLDIWFREPGVYMDVWGKGTTVTVSS
VL: B1 VL with S96A, P101I, L109V
notes: IgG1; also called ST2 Antibody 69
B2: the affinity, expressed as Kd, was 71 nM; the off-rate constant (koff) came to 0.029 s⁻¹; the kon was 410000 M⁻¹ s⁻¹.

B3: Human ST2 IgG1 Antibody 66 (antibody, V domains shown)
VH: QVQLVQSGAEVKKPGSSVKVSCKASGGTFSSNAISWVRQAPGQGLEWMGGIIPIFGTANYAQKFQGRVTITADESTSTAYMELSSLRSEDTAVYYCAGSPTGTPRVVFDYWGQGTLVTVSS
VL: B1 VL with S96A, P101I, K108R
notes: IgG1; also called ST2 Antibody 66
As to B3, the affinity, expressed as Kd, was 176 nM; the koff came to 0.0028 s⁻¹; the on-rate constant (kon) came out at 16000 M⁻¹ s⁻¹.

B4: Human ST2 IgG1 Antibody 63 (antibody, V domains shown)
VH: QVQLVQSGAEVKKPGSSVKVSCKASGGTFSSDAINWVRQAPGQGLEWMGGIVPAFGTANYAQKFQGRVTITADESTSTAYMELSSLRSEDTAVYYCARSSSSWPYYYYYMDVWGKGTTVTVSS
VL: B1 VL with H31L, S32N, Y35N, Y37F, L38I, S58I, S61G, S96A, L109V
notes: IgG1; also called ST2 Antibody 63
In the case of B4, binding was characterised by a dissociation constant (Kd) of 96 nM, the koff is 0.043 s⁻¹ and the kon was 450000 M⁻¹ s⁻¹.

B5: Human ST2 IgG1 Antibody 56 (antibody, V domains shown)
VH: EVQLLESGGGLVKPGGSLRLSCAASGFTFSSYAMSWVRQAPGKGLEWVSSISSDSYYKYHADSVKGRFTISRDDSKNTLYLQMNSLKTEDTAVYYCAKGADYDFWSGYLDYWGQGTLVTVSS
VL: DIQMTQSPSSLSASVGDRVTITCRASQGISSYLAWYQQKPGKAPKLLIYRASTLQSGVPSRFSGSGSGTDFTLTISSLQPEDFATYYCQQSYNTPWTFGQSTKVEIKR
notes: IgG1; also called ST2 Antibody 56
As for B5, binding was put at a Kd of 970 nM, the koff was determined as 0.14 s⁻¹ and the on-rate (kon) is 150000 M⁻¹ s⁻¹.

B6: Human ST2 IgG1 Antibody 67 (antibody, V domains shown)
VH: QVQLVQSGAEVKKPGASVKVSCKASGGTFSSYAISWVRQAPGQGLEWMGRINPNSGGTVYAQKFQGRVTMTRDTSTSTVYMELSSLRSEDTAVYYCARDTSIAARLNPDYYYYYGMDVWGQGTTVTVSS
VL: B5 VL with G28S, Y32W, R50A, T53N, N93S, W96V, K103R, V104L
notes: IgG1; also called ST2 Antibody 67
B6 yielded a Kd of 738 nM, a koff of 0.1 s⁻¹ and a kon of 140000 M⁻¹ s⁻¹.

B7: Human ST2 IgG1 Antibody 55 (antibody, V domains shown)
VH: QVQLVQSGAEVKKPGSSVKVSCKASGGTFSSYAISWVRQAPGQGLEWMGDIIPVIDTTNYAQKFQGRVTITADESTSTAYMELSSLRSEDTAVYYCARASGYPFGRWFDPWGQGTLVTVSS
VL: not shown
notes: IgG1; also called ST2 Antibody 55
B7 showed a Kd of 349 nM, a koff of 0.1 s⁻¹ and an on-rate (kon) of 300000 M⁻¹ s⁻¹.

B8: Human ST2 IgG1 Antibody 62 (antibody, V domains shown)
VH: QVQLVQSGAEVKKPGSSVKVSCKASGYIFTNYWIQWVRQAPGQGLEWMGGIIPIFETANYAQKFQGRVTITADDSTSTAYMELSSLRSEDTAVYYCARLGDRGDFDYWGQGTLVTVSS
VL: DIVMTQSPDSLAVSLGERATINCKSSQSISHSPNTRDYLAWYQQKPGQPPKLLIYWASTRESGVPDRFSGSGSGTDFTLTISSLQAEDVAVYYCQQYYRFPLAFGQSTKVEIKR
notes: IgG1; also called ST2 Antibody 62
Molecule B8 came in with a Kd of 71 nM, a koff of 0.068 s⁻¹ and an on-rate (kon) of 960000 M⁻¹ s⁻¹.

B9: Human ST2 IgG1 Antibody 54 (antibody, V domains shown)
VH: EVQLLESGGGLVQPGGSLRLSCAASGFTVSSNYMSWVRQAPGKGLEWVSAISGSGGSTYYADSVKGRFTISRDNSKNTLYLQMNSLRAEDTAVYYCARGRFGSRDVWGKGTTVTVSS
VL: not shown
notes: IgG1; also called ST2 Antibody 54
As to B9, the Kd was found to be 81 nM, the off-rate constant (koff) was 0.029 s⁻¹ and the kon is 360000 M⁻¹ s⁻¹.

B10: Human ST2 IgG1 Antibody 51 (antibody, V domains shown)
VH: QVQLVQSGAEVKKPGSSVKVSCKASGGSFSRSSISWVRQAPGQGLEWMGGIIPIFGAPVYAQDLQGRVTITADESTSTAYMELSSLRSEDTAVYYCARDHPHCSSTSCYYGMDVWGQGTTVTVSS
VL: EIVMTQSPATLSVSPGERATLSCRASQTISSSYLAWYQQKPGQAPRLLIYGASTRATGIPARFSGSGSGTEFTLTISSLQSEDFAVYYCQQYGSSPLTFGGGTKVEIKR
notes: IgG1; also called ST2 Antibody 51
B10 yielded a Kd of 154 nM, an off-rate (koff) of 0.043 s⁻¹ and a kon of 280000 M⁻¹ s⁻¹.

B11: Human ST2 IgG1 Antibody 70 (antibody, V domains shown)
VH: QVQLVQSGAEVKKPGSSVKVSCKASGYAFTDYFIHWVRQAPGQGLEWMGGIIPIFGTANYAQKFQGRVTITADKSTSTAYMELSSLRSEDTAVYYCARVAYGAFDIWGQGTMVTVSS
VL: B10 VL with T28S, I29V, G93N, S94N, S95W
notes: IgG1; also called ST2 Antibody 70
With B11, binding was characterised by a dissociation constant (Kd) of 268 nM, the dissociation rate constant (koff) came to 0.099 s⁻¹ and the kon is 370000 M⁻¹ s⁻¹.

B12: Human ST2 IgG1 Antibody 64 (antibody, V domains shown)
VH: QVQLVQSGAEVKKPGSSVKVSCKASGYFFTSYGISWVRQAPGQGLEWMGGVIPISGTANYAQSFQGRVTITADESTSTAYMELSSLRSEDTAVYYCARDENGAFDIWGQGTTVTVSS
VL: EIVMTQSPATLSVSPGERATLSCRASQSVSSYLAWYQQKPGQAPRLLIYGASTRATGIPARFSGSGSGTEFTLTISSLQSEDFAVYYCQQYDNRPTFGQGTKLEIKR
notes: IgG1; also called ST2 Antibody 64
With B12, the dissociation constant Kd worked out at 366 nM, the koff turned out to be 0.12 s⁻¹ and the kon turned out to be 330000 M⁻¹ s⁻¹.

B13: Human ST2 IgG1 Antibody 68 (antibody, V domains shown)
VH: QVQLVQSGAEVKKPGSSVKVSCKASGGTFSSYAISWVRQAPGQGLEWMGGIIPVVGSPDYAQRFQGRVTITADESTSTAYMELSSLRSEDTAVYYCARHSIVGATATSMDVWGKGTTVTVSS
VL: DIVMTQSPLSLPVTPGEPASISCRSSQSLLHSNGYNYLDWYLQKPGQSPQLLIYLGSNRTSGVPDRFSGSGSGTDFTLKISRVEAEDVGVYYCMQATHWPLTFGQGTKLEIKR
notes: IgG1; also called ST2 Antibody 68
As to B13, the Kd is 704 nM, the koff is 0.13 s⁻¹ and the on-rate constant (kon) stood at 190000 M⁻¹ s⁻¹.

B14: Human ST2 IgG1 Antibody 59 (antibody, V domains shown)
VH: EVQLLESGGGVVQPGRSLRLSCAASGFTFSSYWMSWVRQAPGKGLEWVSSISSDSSYKYYADSVKGRFTISRDNSKNTLYLQMNSLRAEDTAVYYCARDGLRWDAFDIWGQGTMVTVSS
VL: not shown
notes: IgG1; also called ST2 Antibody 59
Molecule B14 returned a dissociation constant Kd of 1000 nM, a koff of 0.19 s⁻¹ and an on-rate (kon) of 190000 M⁻¹ s⁻¹.

B15: Human ST2 IgG1 Antibody 53 (antibody, V domains shown)
VH: QVQLVQSGAEVKKPGSSVKVSCKASGGTFSSYAISWVRQAPGQGLEWMGGIIPIFGTANYAQKFQGRVTITADESTSTAYMELSSLRSEDTAVYYCARVPADYYYYYYGMDVWGQGTTVTVSS
VL: not shown
notes: IgG1; also called ST2 Antibody 53
B15 registered a dissociation constant (Kd) of 740 nM, an off-rate (koff) of 0.12 s⁻¹ and a kon of 160000 M⁻¹ s⁻¹.

B16: Human ST2 IgG1 Antibody 58 (antibody, V domains shown)
VH: EVQLLESGAEVKKPGSSVKVSCKASGGTFSSYAISWVRQAPGQGLEWMGGIIPIFGTANYAQKFQGRVTITADKSTSTAYMELSSLRSEDTAVYYCARPRLAVAGGWYFDLWGRGTLVTVSS
VL: DIQMTQSPSSLSASVGDRVTITCQASQDISNYLNWYQQKPGKAPKLLIYAASSLQSGVPSRFSGSGSGTDFTLTISSLQPEDFATYYCQQSFSSTPTFGQGTKLEIKR
notes: IgG1; also called ST2 Antibody 58
B16 displayed a Kd of 628 nM, an off-rate constant (koff) of 0.14 s⁻¹ and a kon of 220000 M⁻¹ s⁻¹.

B17: Human ST2 IgG1 Antibody 52 (antibody, V domains shown)
VH: QVQLVQSGAEVKKPGSSVKVSCKASGGTFSNYAISWVRQAPGQGLEWMGWISAYNGNTNYAQKFQGRVTITADESTSTAYMELSSLRSEDTAVYYCARLSTVTTRPYYYYGMDVWGQGTTVTVSS
VL: DIVMTQSPLSLPVTPGEPASISCRSSQSLLHSNGYNYLDWYLQKPGQSPQLLIYAASSLQGGVPDRFSGSGSGTDFTLKISRVEAEDVGVYYCMQGTHWPTFGQGTKVEIKR
notes: IgG1; also called ST2 Antibody 52
As to B17, the Kd was 932 nM, the off-rate (koff) came out at 0.15 s⁻¹ and the kon worked out at 160000 M⁻¹ s⁻¹.

B18: Human ST2 IgG1 Antibody 57 (antibody, V domains shown)
VH: QVQLVQSGAEVKKPGASVKVSCKASGYTFTGYYMHWVRQAPGQGLEWMGVINPSGGSTSYAQKFQGRVTMTRDTSTSTVYMELSSLRSEDTAVYYCARGDYYYGSGSDYYYYYGMDVWGQGTLVTVSS
VL: DIQMTQSPSSLSASVGDRVTITCRASQGVTSWLAWYQQKPGKAPKLLIYAASTLQSGVPSRFSGSGSGTDFTLTISSLQPEDFATYYCQQANSFPLTFGGGTKVEIKR
notes: IgG1; also called ST2 Antibody 57
Regarding B18, the Kd worked out at 140 nM, the koff worked out at 0.072 s⁻¹ and the kon turned out to be 510000 M⁻¹ s⁻¹.

B19: Human ST2 IgG1 Antibody 60 (antibody, V domains shown)
VH: QVQLVQSGAEVKKPGASVKVSCKASGYTFTDHYLHWVRQAPGQGLEWMGIINPSGGYTSHAQKFQGRVTMTRDTSTSTVYMELSSLRSEDTAVYYCARDRFRELLGSRYYGMDVWGQGTTVTVSS
VL: B18 VL with G28D, V29L, T30S, S31N, W32H, A91Y, N92H, S93D, F94W, G100Q
notes: IgG1; also called ST2 Antibody 60
On to B19, for which binding was put at a Kd of 1100 nM, the dissociation rate constant (koff) stood at 0.12 s⁻¹ and the kon was found to be 110000 M⁻¹ s⁻¹.

The values above are taken from US20210403579A1 (DELINIA, published 2021).
